In test [1] the target is T1, recombinant human CTLA4 protein with human IgG1 Fc tag at the C-terminus (Acro biosystems, Cat#CT4-H5255) (human, UniProt P16410 37-162).
T1 sequence (looked up): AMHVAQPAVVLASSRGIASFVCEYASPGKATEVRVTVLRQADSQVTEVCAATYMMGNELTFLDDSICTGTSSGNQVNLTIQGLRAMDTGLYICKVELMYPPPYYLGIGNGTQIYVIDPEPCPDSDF
Briefly: cell-based or functional assay.

Test [2] deals with T2, recombinant human CTLA4-his protein (Acro biosystems, Cat#CT4-H5229) (human, UniProt P16410 37-162).
T2 construct: bought recombinant protein; not shown: his tag
T2 sequence (looked up): T1 sequence (looked up)
Briefly: SPR, Biacore T200; antibody captured, CTLA4-his as analyte. How it is done: (§1) Un-reacted moieties on the biosensor surface were blocked with ethanolamine. […] The antigen-antibody association kinetics was followed for 2 minutes and the dissociation kinetics was followed for 10 minutes. The association and dissociation curves were fit to a 1:1 Langmuir binding model using BIAcore evaluation software.

In test [3] the target is T3, cynomolgus monkey CTLA4-his protein (Acro biosystems, Cat#CT4-C5227) (cynomolgus monkey, UniProt G7PL88 36-161).
T3 construct: bought recombinant protein; also called Cynomolgus CTLA4-his; not shown: his tag
T3 sequence: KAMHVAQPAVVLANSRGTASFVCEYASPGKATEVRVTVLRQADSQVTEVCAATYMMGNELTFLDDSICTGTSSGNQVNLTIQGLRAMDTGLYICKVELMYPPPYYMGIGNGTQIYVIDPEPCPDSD
The test is described as above. On the procedure: as §1

In test [4] the target is T1, recombinant human CTLA4 protein with …. Briefly: capture ELISA: antibody captured on anti-mouse IgG F(ab')2 coated plate, biotin human CTLA4-Fc 26 ng/ml, streptavidin-HRP, OD(450-630). How it is done:
(§2) Plates were washed once with wash buffer (PBS+0.05% v/v Tween-20, PBST) and then blocked with 200 µl/well blocking buffer (PBST with 5% w/v non-fatty milk) for 2 hours at 37° C. […] After a final wash, plates were incubated with 100 µl/well substrate TMB (Innoreagents, Cat#TMB-S-002). The reaction was stopped in 15 minutes at room temperature with 50 µl/well 1M H₂SO₄, and the absorbance of the each well was read on a microplate reader using dual wavelength mode with 450 nm for TMB and 630 nm as the reference wavelength, then the OD (450-630) values were plotted against antibody concentration. Data was analyzed using Graphpad Prism software and EC₅₀ values were reported.
In general terms: An ELISA detects its analyte on a solid surface through an enzyme-linked reagent.

For test [5] the target is unchanged. Nature of the test: cell based blocking FACS: antibody pre-mixed with human CTLA4-Fc (1 ug/mL), added to Daudi cells; blocked ligands: cell surface CD80/CD86. On the procedure: Daudi cells were harvested from cell culture flasks at the log phase, washed twice and re-suspended in PBS containing 2% v/v Fetal Bovine Serum (FACS buffer). […] Cells were washed twice and re-suspended in FACS buffer. Fluorescence was measured using a Becton Dickinson FACS Canto II-HTS equipment. Data was analyzed using Graphpad Prism software and IC₅₀ values were reported.

For test [6] the target is unchanged. Briefly: competitive ELISA: antibody pre-mixed with biotin human CTLA4-Fc (65 ng/ml), added to plate coated with the benchmark; competitor: coated Yervoy. On the procedure:
Plates were washed once with wash buffer, blocked with 200 µl PBST with 5% w/v non-fatty milk, incubated for 2 hours at 37° C., and washed 4 times.
After incubation at 37° C. for 40 minutes, plates were washed 4 times again using wash buffer. Then the plates were added and incubated with 100 µl/well streptavidin conjugated HRP (1:10000 dilution in PBST, Jackson Immuno Research, Cat#016-030-084, 100 µl/well) for 40 minutes at 37° C. Plates were finally washed using wash buffer. Finally, TMB was added and the reaction was stopped using 1M H₂SO₄, and the absorbance of the each well was read on a microplate reader using dual wavelength mode with 450 nm for TMB and 630 nm as the reference wavelength, then the OD (450-630) values were plotted against antibody concentration. Data was analyzed using Graphpad Prism software and IC₅₀ values were reported.

The target is the same in test [7]. Briefly: cell based blocking FACS: antibody pre-mixed with human CTLA4-Fc, added to Daudi cells; blocked ligands: cell surface CD80/CD86.
Test [8] has the same target. Nature of the test: capture ELISA: antibody captured on coated plate (anti-human IgG Fc for the chimeric antibodies), biotin human CTLA4-Fc, streptavidin-HRP, OD(450-630). On the procedure:
as §2
For the capture ELISA, AffiniPure Goat Anti-Human IgG, Fcy fragment specific (Jackson Immuno Research, Cat#109-005-008) was used instead of AffiniPure Goat Anti-Mouse IgG, F(ab′)₂ fragment specific, 100 µl/well.

The target of test [9] is T2, recombinant human CTLA4-his protein …. Briefly: BLI, Octet RED96; antibody on AHC sensor, CTLA4-his as analyte. How it is done:
Briefly, AHC biosensors (anti-human IgG Fc capture, from ForteBio) were presoaked with 10 mM glycine (pH 1.5) for 3 seconds, and then dipped in a well with running buffer (0.5% w/v BSA in PBST) for 3 seconds, the soaking and dipping steps were repeated for three times. […] A new baseline was run for 180 seconds in another well with running buffer. […] Finally, sensors were presoaked with 10 mM glycine (pH 1.5) for 3 seconds, and then were dipped in a well with running buffer for 3 seconds, the soaking and dipping steps repeated for three times. The association and dissociation curves were fit to a 1:1 Langmuir binding model using ForteBio Data Analysis 8.1.
On the technique in general: In BLI a coated tip is dipped into the sample, and binding shifts an interference pattern.

By Kd is commonly meant the concentration at which binding is half-saturated. The koff is the rate constant with which the complex falls apart. Usually kon stands for the second-order rate constant of association. What is called EC50 is the concentration giving half of the maximal effect. For orientation: IC50 means the concentration that gives 50% inhibition.

B1: mouse anti-CTLA4 monoclonal antibody D1H4 (antibody, V domains shown)
VH: EVQLQQSGPVLVKPGASVKMSCKASGYTFTDYYMNWVKQSHGKSLEWIGAINPDHGGSSYNQKFKGKATLTVDKSSSTAYMELNSLTSEDSAVYYCARDGSIHYVMDDWGQGTSVTVSS
VL: DIVMSQSPSSLTVSAGDKVTMSCKSSQSLLHSGNQKNYLAWYQQKPWQPPKLLIYGASTRESGVPDRFTGSGSGTDFTLTISSVQAEDLAVYYCQNDYGYPYTFGGGTKLEIK
notes: mouse mAb purified from hybridoma supernatant
As to B1, in test [1], the “EC50 of IL-2 release (GS-J1 T cells + GS-C1/CD80 cells + human CTLA4-Fc, IL-2 HTRF)” value (“EC50 of IL-2 release” below) is around 40.8 nM. In test [2], the dissociation constant Kd was determined as 0.925 nM, the off-rate constant (koff) came out at 0.000321 s⁻¹ and the kon was 346000 M⁻¹ s⁻¹. In test [3], this molecule came in with a Kd of 0.727 nM, a dissociation rate constant (koff) of 0.000422 s⁻¹ and a kon of 580000 M⁻¹ s⁻¹. Further, in [4], the 50% effective concentration (EC50) was 0.108 nM. Moreover, the IC50 in test [5] was around 8.85 nM. The “IC50 (read off the curve)” value in test [6] was around 2 nM.

B2: mouse anti-CTLA4 monoclonal antibody D1B6 (antibody, V domains shown)
VH: EVQLQQSGPELVKPGASVKLSCKASGNTFTTYVLNWVKQKPGQGLEWIGYFNPYNDGIKYNEKFKGKATLTSDKSSNTAYMELSSLTSEDSAVYYCARFEGGGYAMDYWGQGTSVTVSS
VL: DIVLTQSPASLAVSLGQRATISCRASQSVGTSRNTYIHWYQQKLGQPPKLLIKYASDLESGVPARFSGSGSGTDFTLNIHPVEEEDTATYYCQHSWEIPYTFGGGTKLEIK
notes: as for B1
As to B2, in [1], the “EC50 of IL-2 release” value is 36.6 nM. Further, the dissociation constant Kd in [2] came out at 7.45 nM; in [3], 4.12 nM. Besides, the results for the dissociation rate constant (koff) in test [2] and in test [3] were 0.000487 s⁻¹ and 0.000787 s⁻¹, respectively. For the same molecule, the values for the kon in [2] and in test [3] were 65400 M⁻¹ s⁻¹ and 191000 M⁻¹ s⁻¹, respectively. Further, the EC50 in test [4] was determined as 0.116 nM; in [8] it was 0.418 nM. In addition, the IC50 in test [7] was 8.09 nM; in test [5] it was around 4.6 nM; in test [6], 0.618 nM.

B3: chimeric D1B6 anti-CTLA4 antibody (antibody, human IgG4 S228P, kappa, V domains shown)
VH: B2 VH
VL: DIVLTQSPASLAVSLGQRATISCRASQSVGTSRNTYIHWYQQKLGQPPKLLIKYASDLESGVPARFSGSGSGTDFTLNIHPVEEEDTATYYCQHSWEIPYTFGGGTKLEIKR
notes: mouse variable domains on human IgG4/kappa, made in 293F cells
Take B3: in test [9], the Kd came out at 148 nM, the koff amounted to 0.00076 s⁻¹ and the association rate constant (kon) was determined as 5140 M⁻¹ s⁻¹. In test [7], the IC50 is around 6.6 nM. Moreover, the 50% effective concentration (EC50) in [8] was 0.514 nM.

B4: mouse anti-CTLA4 monoclonal antibody C1G4 (antibody, V domains shown)
VH: EVKLDETGGGLVQPGRPIKLSCVASGFTFSDNWMNWVRQSPEKGLEWVAQIRNKPYNYETYYSDSVKGRFTISRDDSKSSVYLQMNNLRTKDMGIYYCTGGFTYWGQGTLVTVSA
VL: DIQMTQSPPSLSASVGETVTITCGASENIYGGLNWYQRKQGKSPQLLIYGATNLADGMSSRFSGSGSGRQYSLKISRLHPDDVATYYCQNVLNTPYTFGGGTKLEIK
notes: as for B1
B4: in [1], the “EC50 of IL-2 release” value amounted to 35.3 nM. Besides, the Kd in test [2] amounted to 1.77 nM; in test [3], 1.71 nM. For the same molecule, the figures for the off-rate (koff) in [2] and in test [3] were 0.000513 s⁻¹ and 0.00077 s⁻¹, respectively. Further, the association rate constant (kon) in [2] turned out to be 290000 M⁻¹ s⁻¹; in test [3] it was 451000 M⁻¹ s⁻¹. The results for the 50% effective concentration (EC50) in test [4] and in [8] were 0.134 nM and 0.832 nM, respectively. Moreover, the IC50 in test [7] was found to be 10.6 nM; in test [5], 11 nM; in test [6], 0.865 nM.

B5: chimeric C1G4 anti-CTLA4 antibody (antibody, human IgG4 S228P, kappa, V domains shown)
VH: B4 VH
VL: DIQMTQSPPSLSASVGETVTITCGASENIYGGLNWYQRKQGKSPQLLIYGATNLADGMSSRFSGSGSGRQYSLKISRLHPDDVATYYCQNVLNTPYTFGGGTKLEIKR
notes: as for B3
In the case of B5, in test [9], the dissociation constant Kd worked out at 1 nM, the koff amounted to 0.000679 s⁻¹ and the association rate constant (kon) turned out to be 676000 M⁻¹ s⁻¹. Besides, the half-inhibitory concentration (IC50) in test [7] is 10.2 nM. The EC50 in test [8] is 0.869 nM.

B6: mouse anti-CTLA4 monoclonal antibody D1H3 (antibody, V domains shown)
VH: QVQLQQPGAELVNPGASVKLSCKASGYTFTSYWLHWVKQRPGRGLEWIGRIDPNRGTIYYNEKFNNKATVTVDKPSNTAYMQLSRLTLEDSAVYYCARGGSNFYAMDYWGQGTSVTVSS
VL: DIQMTQSPASLSASVGETVTITCRTSENIYSYLAWYQQKQGESPQLLVYNAKTLAEGVPSRFSGSGSGTQFSLKINSLQPEDFGSYYCQNHDGIPFTFGSGTKLEIK
notes: as for B1
Take B6: the “EC50 of IL-2 release” value in test [1] stood at 37.8 nM. Besides, in [2], the dissociation constant (Kd) turned out to be 4.15 nM, the dissociation rate constant (koff) worked out at 0.000931 s⁻¹ and the kon came to 224000 M⁻¹ s⁻¹. Further, in test [3], the equilibrium dissociation constant (Kd) stood at 2.07 nM, the off-rate constant (koff) is 0.000601 s⁻¹ and the kon was determined as 290000 M⁻¹ s⁻¹. Moreover, the EC50 in test [4] came out at 0.206 nM. Also, the half-inhibitory concentration (IC50) in test [5] stood at 9.27 nM. Moreover, the IC50 in test [6] stood at 1.86 nM.

B7: mouse anti-CTLA4 monoclonal antibody D1A7 (antibody, V domains shown)
VH: QVTLKESGPGMLQPSQTLSLTCSFSGFSLSSSKLGVGWIRQPAGKGLEWLAHIWWNDDNYYVPSLKSRLTISKDTSNNQVFLKITNVDAADTATYYCVQVPYYTTQPWFAYWGQGTLVTVSA
VL: DIQMTQSPASLSASVGETVTITCRASGNIHNYLAWYLQNQGRSPQLLVYNTETLADGVSSRFSGSGSGTQYFLKISSLQPEDFGTYYCQHLWSTPWTFGGGTKLEIK
notes: as for B1
In the case of B7, the “EC50 of IL-2 release” value in test [1] is 45.9 nM. Moreover, in test [2], the Kd is 2.41 nM, the koff was 0.000602 s⁻¹ and the kon was found to be 249000 M⁻¹ s⁻¹. In test [3], the equilibrium dissociation constant (Kd) stood at 1.66 nM, the koff amounted to 0.00137 s⁻¹ and the on-rate constant (kon) came to 829000 M⁻¹ s⁻¹. Also, the EC50 in [4] turned out to be 0.134 nM. Moreover, the half-inhibitory concentration (IC50) in test [5] was determined as 6.81 nM. For the same molecule, the IC50 in test [6] is 0.445 nM.

The values are drawn from patent publication US20230212304A1 (BIOSION, published 2023).
